Experimental data published in article PMC11711466.

Columns and labels:
[1] = target: hORC1-5;hCDC6;hCDT1deltaN;hMCM2-7 (human;human;human;human) (UniProt Q13415+Q13416+Q9UBD5+O43929+O43913+Q99741+Q9H211+P49736+P25205+P33991+P33992+Q14566+P33993); assay: bead pull-down (pre-RC assay); conditions: ATP, high-salt wash, no hORC6; CDT1 form inferred; 25 mM HEPES-KOH pH 7.5, 250 mM KGlu, 1 mM DTT, 4 mM MgOAc, 0.1% Triton X-100, 1 mM ATP or ATPgS, 30 C; high-salt wash adds 300 mM NaCl; in-solution: …; scale: fold reduction of hMCM2-7 signal vs with hORC6
[2] = target: hORC1-5;hORC6;hCDC6;hCDT1deltaN;hMCM2-7 (human;human;human;human;human) (UniProt Q13415+Q13416+Q9UBD5+O43929+O43913+Q9Y5N6+Q99741+Q9H211+P49736+P25205+P33991+P33992+Q14566+P33993); assay: bead pull-down (pre-RC assay); conditions: ATP, high-salt wash; CDT1 form inferred; 25 mM HEPES-KOH pH 7.5, 250 mM KGlu, 1 mM DTT, 4 mM MgOAc, 0.1% Triton X-100, 1 mM ATP or ATPgS, 30 C; high-salt wash adds 300 mM NaCl; in-solution: …; scale: fold higher hMCM2-7 signal than without hORC6
[3] = target: budding yeast MCM2-7 complex (budding yeast) (UniProt P29469); assay: negative-stain EM (2D class averages); eluates of pre-RC reactions with ATP washed with 300 mM NaCl (high salt); complexes on DNA

| Substance | binding signal [1] | binding signal [2] | percent of particles in double-hexamer class averages [3] [%] |
| --- | --- | --- | --- |
| lamin B2 origin DNA for pre-RC / hOCCM (2 or 3 kbp) | 1.8 | 1.8 |  |
| budding yeast MCM2-7 complex, P29469 1-868; P24279 1-971; P30665 1-933; P29496 1-775; P53091 1-1017; P38132 1-845 |  |  | 91 |
